The values below are quoted from earlier work in PMC2865993.

The data set addresses actin filament (sides) (Oryctolagus cuniculus) (UniProt P68135).

For “formin (mDia1 FH2) FH2 (from UniProt O08808)”, the Kd was 3 µM.
